[ ]: non-standard residue; d: D form. Hyp = O=C(O)[C@@H]1C[C@@H](O)CN1
Legend:
[1] = target: AAP receptors in CHO cells; assay: in situ displacement of [125I]AAP10 on intact CHO cells
[2] = target: AAP receptors in CHO cells; assay: cell-based or functional assay
[3] = target: [125I]AAP10 binding site in murine heart tissue preparations; assay: displacement of 0.8 nM [125I]AAP10 from murine heart filtrate
[4] = target: [125I]AAP10 binding site in murine heart tissue preparations; assay: displacement of 0.8 nM [125I]AAP10 from murine heart membranes

IC50 [1] [nM]	Inhibition of forskoline stimulated cAMP formation in CHO cells, EC50 [2] [nM]	IC50 [3] [nM]	IC50 [4] [nM]	Molecule
0.5	6.2	3.6	1.2	Ac-D-Tyr-D-Pro-D-4Hyp-Gly-D-Ala-Gly-NH2 (Compound 2) (peptide)
130	11	1.2	–	H-GAG[Hyp]PY-NH2 [H-Gly-Ala-Gly-Hyp-Pro-Tyr-NH2 (AAP10)]
0.8	53	1.2	–	H-GP[Hyp]GAG-OH (SMILES C[C@H](NC(=O)CNC(=O)[C@@H]1C[C@@H](O)CN1C(=O)[C@@H]1CCCN1C(=O)CN)C(=O)NCC(=O)O) [H-Gly-Pro-Hyp-Gly-Ala-Gly-OH (AAP, antiarrhythmic peptide)]

Second part, the molecule before the results:

Molecule	IC50 [1] [nM]	Inhibition of forskoline stimulated cAMP formation in CHO cells, EC50 [2] [nM]	IC50 [3] [nM]	IC50 [4] [nM]
Ac-D-Tyr(3,5-di-I)-D-Pro-D-Hyp-Gly-D-Ala-Gly-NH2 (Compound 24) (peptide)	65	–	–	–
{ASAL(3-I)}-P[Hyp]GAG-NH2 [ASAL(mono-iodo)-Pro-Hyp-Gly-Ala-Gly-NH2 (Compound 32)]	0.5	–	–	–
